In article PMC8670242, “Functional Characterization and Structural Insights Into Stereoselectivity of Pulegone Reductase in Menthol Biosynthesis” (Frontiers in Plant Science, 2021):

Tests used:
[1] = substrate: CC(C)=C1CC[C@H](C)CC1=O; experiment: chiral GC of menthone/isomenthone formed, Michaelis-Menten; assay type: biochemical, Mentha x piperita; settings: 10 mM NADPH with glucose-6-phosphate/G6PDH regeneration, pH 7.5, 31 °C, n-hexane overlay
[2] = substrate: CC(C)=C1CC[C@@H](C)CC1=O; experiment: as above; assay type: biochemical, Mentha x piperita; settings: 10 mM NADPH with glucose-6-phosphate/G6PDH regeneration, pH 7.5, 31 °C, n-hexane overlay

B1: MpPR (Mentha x piperita) (protein)
chain: MVMNKQIVLNNYINGSLKQSDLALRTSTICMEIPDGCNGAILVKNLYLSVNPYLILRMGKLDIPQFDSILPGSTIVSYGVSKVLDSTHPSYEKGELIWGSQAGWEEYTLIQNPYNLFKIQDKDVPLSYYVGILGMPGMTAYAGFFEICSPKKGETVFVTAAAGSVGQLVGQFAKMFGCYVVGSAGSKEKVDLLKNKFGFDDAFNYKEESDYDTALKRHFPEGIDIYFDNVGGKMLEAVINNMRVHGRIAVCGMVSQYSLKQPEGVHNLLKLIPKQIRMQGFVVVDYYHLYPKFLEMVLPRIKEGKVTYVEDISEGLESAPSALLGVYVGRNVGNQVVAVSRE
notes: pET28a His-tag fusion, E. coli BL21(DE3), Ni-NTA and gel filtration; homodimer; EC 1.3.1.81
[1]
  Km: 8.63 µM
  kcat: 1595.06 10^-4 s^-1
[2]
  Km: 3.00 µM
  kcat: 863.66 10^-4 s^-1
